The values that follow come from paper PMC6220203 (2018).

In the assay the target is Biotinylated aMD5 (C-terminal biotinylated macrocycle) (macrocyclized; biotin (NHS-biotin) on the added C-terminal Lys). Kind of assay: SPR. In general terms: SPR reads the build-up and loss of mass on a sensor chip optically.

B1: MET receptor extracellular domain SEMA–IPT4 (residues 1–931)-Fc (Fc fusion)
chain: ECKEALAKSEMNVNMKYQLPNFTAETPIQNVILHEHHIFLGATNYIYVLNEEDLQKVAEYKTGPVLEHPDCFPCQDCSSKANLSGGVWKDNINMALVVDTYYDDQLISCGSVNRGTCQRHVFPHNHTADIQSEVHCIFSPQIEEPSQCPDCVVSALGAKVLSSVKDRFINFFVGNTINSSYFPDHPLHSISVRRLKETKDGFMFLTDQSYIDVLPEFRDSYPIKYVHAFESNNFIYFLTVQRETLDAQTFHTRIIRFCSINSGLHSYMEMPLECILTEKRKKRSTKKEVFNILQAAYVSKPGAQLARQIGASLNDDILFGVFAQSKPDSAEPMDRSAMCAFPIKYVNDFFNKIVNKNNVRCLQHFYGPNHEHCFNRTLLRNSSGCEARRDEYRTEFTTALQRVDLFMGQFSEVLLTSISTFIKGDLTIANLGTSEGRFMQVVVSRSGPSTPHVNFLLDSHPVSPEVIVEHTLNQNGYTLVITGKKITKIPLNGLGCRHFQSCSQCLSAPPFVQCGWCHDKCVRSEECLSGTWTQQICLPAIYKVFPNSAPLEGGTRLTICGWDFGFRRNNKFDLKKTRVLLGNESCTLTLSESTMNTLKCTVGPAMNKHFNMSIIISNGHGTTQYSTFSYVDPVITSISPKYGPMAGGTLLTLTGNYLNSGNSRHISIGGKTCTLKSVSNSILECYTPAQTISTEFAVKLKIDLANRETSIFSYREDPIVYEIHPTKSFISGGSTITGVGKNLNSVSVPRMVINVHEAGRNFTVACQHRSNSEIICCTTPSLQQLNLQLPLKTKAFFMLDGILSKYFDLIYVHNPVFKPFEKPVMISMGNENVLEIKGNDIDPEAVKGEVLKVGNKSCENIHLHSEAVLCTVPNDLLKLNSELNIEWKQAISSTVLGKVIVQPDQNF
With B1, the koff amounted to 0.00041 s⁻¹.

As a reminder, the koff is a measure of how fast the partners let go of each other.
